# In IntAct's records for PubMed 22139370:
# B1: Cryptochrome-2 (Arabidopsis thaliana (Mouse-ear cress)), Q96524 (parent)
# chain: MKMDKKTIVWFRRDLRIEDNPALAAAAHEGSVFPVFIWCPEEEGQFYPGRASRWWMKQSLAHLSQSLKALGSDLTLIKTHNTISAILDCIRVTGATKVVFNHLYDPVSLVRDHTVKEKLVERGISVQSYNGDLLYEPWEIYCEKGKPFTSFNSYWKKCLDMSIESVMLPPPWRLMPITAAAEAIWACSIEELGLENEAEKPSNALLTRAWSPGWSNADKLLNEFIEKQLIDYAKNSKKVVGNSTSLLSPYLHFGEISVRHVFQCARMKQIIWARDKNSEGEESADLFLRGIGLREYSRYICFNFPFTHEQSLLSHLRFFPWDADVDKFKAWRQGRTGYPLVDAGMRELWATGWMHNRIRVIVSSFAVKFLLLPWKWGMKYFWDTLLDADLECDILGWQYISGSIPDGHELDRLDNPALQGAKYDPEGEYIRQWLPELARLPTEWIHHPWDAPLTVLKASGVELGTNYAKPIVDIDTARELLAKAISRTREAQIMIGAAPDEIVADSFEALGANTIKEPGLCPSVSSNDQQVPSAVRYNGSKRVKPEEEEERDMKKSRGFDERELFSTAESSSSSSVFFVSQSCSLASEGKNLEGIQDSSDQITTSLGKNGCK
# partner: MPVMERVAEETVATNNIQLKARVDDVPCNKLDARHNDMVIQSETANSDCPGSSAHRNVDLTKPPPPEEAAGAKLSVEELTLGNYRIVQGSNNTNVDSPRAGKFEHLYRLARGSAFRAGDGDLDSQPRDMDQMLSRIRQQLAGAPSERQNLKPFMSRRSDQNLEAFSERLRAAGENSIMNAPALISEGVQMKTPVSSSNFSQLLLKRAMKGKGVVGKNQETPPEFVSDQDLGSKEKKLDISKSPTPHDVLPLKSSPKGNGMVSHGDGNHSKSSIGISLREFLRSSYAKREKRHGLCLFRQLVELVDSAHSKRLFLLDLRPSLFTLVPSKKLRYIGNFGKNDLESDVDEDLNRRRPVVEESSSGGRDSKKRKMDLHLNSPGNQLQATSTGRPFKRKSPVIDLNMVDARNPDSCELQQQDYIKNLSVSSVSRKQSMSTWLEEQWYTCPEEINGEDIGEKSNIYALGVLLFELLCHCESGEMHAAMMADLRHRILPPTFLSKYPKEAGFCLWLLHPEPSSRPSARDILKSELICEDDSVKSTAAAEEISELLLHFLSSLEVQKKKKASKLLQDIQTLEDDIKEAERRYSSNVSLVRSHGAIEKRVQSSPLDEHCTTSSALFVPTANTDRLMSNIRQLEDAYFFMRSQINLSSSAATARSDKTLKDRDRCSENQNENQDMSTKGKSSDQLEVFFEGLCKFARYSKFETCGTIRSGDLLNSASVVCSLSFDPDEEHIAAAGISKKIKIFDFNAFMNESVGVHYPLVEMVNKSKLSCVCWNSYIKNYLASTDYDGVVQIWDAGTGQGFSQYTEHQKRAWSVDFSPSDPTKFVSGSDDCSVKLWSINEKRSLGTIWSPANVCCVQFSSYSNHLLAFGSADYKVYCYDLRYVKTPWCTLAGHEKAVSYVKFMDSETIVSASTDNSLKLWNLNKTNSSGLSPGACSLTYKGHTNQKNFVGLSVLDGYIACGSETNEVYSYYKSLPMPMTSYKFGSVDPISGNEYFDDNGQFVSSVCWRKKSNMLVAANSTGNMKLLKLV
# B2: Cryptochrome-2 (Arabidopsis thaliana (Mouse-ear cress)), Q96524 (parent)
# chain: B1 chain
# partner: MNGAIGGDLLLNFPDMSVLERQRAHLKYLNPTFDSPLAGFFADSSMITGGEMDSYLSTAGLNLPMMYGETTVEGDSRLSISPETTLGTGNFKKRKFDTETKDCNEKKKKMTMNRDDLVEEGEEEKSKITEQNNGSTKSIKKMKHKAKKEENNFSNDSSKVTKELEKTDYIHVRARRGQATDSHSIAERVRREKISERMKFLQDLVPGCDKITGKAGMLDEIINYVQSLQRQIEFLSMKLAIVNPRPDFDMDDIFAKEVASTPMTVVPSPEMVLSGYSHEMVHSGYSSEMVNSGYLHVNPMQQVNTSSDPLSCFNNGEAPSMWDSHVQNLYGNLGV
# Variants of: B1
# Conditions: with spa1_arath SPA1, Q9SYX2
row,effect of a mutation on the interaction,Variant
1,increasing interaction strength,W374A

# Variants of: B2
# Conditions: with bh063_arath BHLH63, Q8GY61
row,effect of a mutation on the interaction,Variant
1,increasing interaction strength,W374A
2,disrupting interaction strength,D387A
